# Laboratory results taken from patent publication US20250092426, “CAS ENDONUCLEASES AND RELATED METHODS” (Flagship Pioneering Innovations VII, LLC, published 2025).
# T1: CasEnd-21 (synthetic construct)
# T1 chain: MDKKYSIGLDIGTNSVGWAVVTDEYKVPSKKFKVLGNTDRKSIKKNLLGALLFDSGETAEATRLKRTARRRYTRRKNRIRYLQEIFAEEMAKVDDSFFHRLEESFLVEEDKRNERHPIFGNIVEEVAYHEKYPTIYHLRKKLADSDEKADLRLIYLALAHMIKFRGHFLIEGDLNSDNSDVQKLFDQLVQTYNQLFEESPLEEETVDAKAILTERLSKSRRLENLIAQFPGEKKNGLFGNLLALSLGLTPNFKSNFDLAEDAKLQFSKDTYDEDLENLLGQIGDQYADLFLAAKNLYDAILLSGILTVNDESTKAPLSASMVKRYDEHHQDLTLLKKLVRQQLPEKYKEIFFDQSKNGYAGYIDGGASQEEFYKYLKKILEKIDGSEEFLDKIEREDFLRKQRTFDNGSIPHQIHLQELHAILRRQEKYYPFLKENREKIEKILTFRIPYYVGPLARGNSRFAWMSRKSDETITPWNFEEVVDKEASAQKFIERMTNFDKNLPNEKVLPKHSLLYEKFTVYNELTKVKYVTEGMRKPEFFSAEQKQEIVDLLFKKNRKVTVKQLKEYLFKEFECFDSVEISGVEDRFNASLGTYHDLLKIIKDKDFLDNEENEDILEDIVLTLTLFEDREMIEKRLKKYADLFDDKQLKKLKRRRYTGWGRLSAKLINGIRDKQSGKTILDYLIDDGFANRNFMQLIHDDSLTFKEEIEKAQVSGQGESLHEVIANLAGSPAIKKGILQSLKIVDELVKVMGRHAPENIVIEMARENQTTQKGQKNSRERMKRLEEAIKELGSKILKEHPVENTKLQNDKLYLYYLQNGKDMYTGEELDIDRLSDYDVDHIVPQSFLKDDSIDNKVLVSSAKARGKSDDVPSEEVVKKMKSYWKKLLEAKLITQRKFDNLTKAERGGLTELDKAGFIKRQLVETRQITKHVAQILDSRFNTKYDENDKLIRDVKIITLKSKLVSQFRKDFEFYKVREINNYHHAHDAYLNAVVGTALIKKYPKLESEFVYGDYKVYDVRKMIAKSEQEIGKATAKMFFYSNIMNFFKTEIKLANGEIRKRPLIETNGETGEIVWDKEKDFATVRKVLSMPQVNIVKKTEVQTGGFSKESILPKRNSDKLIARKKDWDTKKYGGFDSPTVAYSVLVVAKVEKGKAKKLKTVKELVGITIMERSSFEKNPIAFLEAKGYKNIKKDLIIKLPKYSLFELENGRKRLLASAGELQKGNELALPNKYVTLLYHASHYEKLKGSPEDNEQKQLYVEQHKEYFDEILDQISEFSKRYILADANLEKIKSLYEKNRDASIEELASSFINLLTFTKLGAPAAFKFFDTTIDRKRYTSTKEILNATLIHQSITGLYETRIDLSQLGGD
# B1: BFP-to-GFP template RNA ; BFP reporter protospacer (ssRNA ; dsDNA)
# RNA: GCCGAAGCACUGCACGCCGUGUUUUAGAGCUAGAAAUAGCAAGUUAAAAUAAGGCUAGUCCGUUAUCAACUUGAAAAAGUGGCACCGAGUCGGUGCACCCUGACGUACGGCGUGCAGUGCUU
# DNA 1: GCCGAAGCACTGCACGCCGT
# DNA 2: ACGGCGTGCAGTGCTTCGGC
# Biological target: T1, CasEnd-21
# Assay: cell_activity; +++; HEK293T; PAM not stated
# Summary of the method: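 BFP-to-GFP conversion via reverse transcriptase fusion with each Cas endonuclease plus template RNA: 200 ng of each plasmid nucleofected into 250,000 BFP-expressing HEK293T cells (program DS-150). Percent GFP+ cells by flow cytometry at day 4 measured editing.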
binder,measurement,value
B1,activity,≥ 100 % of reference
